Experimental findings from US20020103123A1 are described below.

The term Ki denotes a dissociation constant, usually derived from enzyme kinetics or from competition with a known ligand. Read a high Ki as a looser hold on the target. The term IC50 denotes the point on the concentration scale where inhibition reaches its midpoint. High values mean weaker potency, low ones greater potency. By Kd is commonly meant the equilibrium constant for the complex coming apart. A lower Kd goes with higher affinity. As usually defined, the pKd is the negative decadic logarithm of the Kd, by convention in mol/L.

The target in assay [1] is human hippocampal Y5 receptor (human).
The target of assay [2] is T1, rat hypothalamic Y5 receptor (rat).
T1 sequence: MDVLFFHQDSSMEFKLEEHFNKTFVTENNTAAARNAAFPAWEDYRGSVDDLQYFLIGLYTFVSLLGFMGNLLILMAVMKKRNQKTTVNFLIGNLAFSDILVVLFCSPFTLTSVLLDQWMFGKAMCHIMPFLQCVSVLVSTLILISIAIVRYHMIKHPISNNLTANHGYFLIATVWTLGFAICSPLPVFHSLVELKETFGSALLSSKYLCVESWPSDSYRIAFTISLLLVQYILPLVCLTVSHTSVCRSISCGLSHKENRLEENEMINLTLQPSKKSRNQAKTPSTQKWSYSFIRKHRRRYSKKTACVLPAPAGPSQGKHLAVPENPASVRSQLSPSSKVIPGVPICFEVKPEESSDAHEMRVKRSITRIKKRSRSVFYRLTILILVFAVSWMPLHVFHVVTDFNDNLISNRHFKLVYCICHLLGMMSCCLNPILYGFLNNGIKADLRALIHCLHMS

The target of assay [3] is rat Y4 receptor (rat) (UniProt Q63447). Nature of the assay: 125I-PYY displacement, COS-7 membranes.
Assay [4] addresses rat Y2 receptor (rat) (UniProt Q9ERC0). Nature of the assay: 125I-PYY displacement, COS-7 membranes.
In assay [5] the target is rat Y1 receptor (rat) (UniProt P21555). Nature of the assay: 125I-PYY displacement, COS-7 membranes.
Assay [6] addresses T1, rat hypothalamic Y5 receptor (rat). Description: 125I-PYY displacement, COS-7 membranes.
Assay [7] deals with membranes from rat hypothalamus. Nature of the assay: 125I-PYY displacement, rat hypothalamic membranes; high-affinity part of a two-part curve.
Assay [8] concerns the target human Y2 receptor (human) (UniProt P49146). Description: 125I-PYY displacement, COS-7 membranes.
Assay [9] deals with membranes from rat hypothalamus. Nature of the assay: 125I-PYY displacement, rat hypothalamic membranes.
The target of assay [10] is T1, rat hypothalamic Y5 receptor (rat). Nature of the assay: saturation binding, isotonic buffer, room temperature, COS-7 membranes.
Assay [11] shares this target. Nature of the assay: time course, 0.08 nM radioligand, room temperature, 10 mM Na+.
For assay [12] the target is unchanged. Nature of the assay: time course, 0.08 nM radioligand, room temperature, 138 mM Na+.
The target in assay [13] is human hippocampal Y5 receptor (human). Nature of the assay: 125I-PYY displacement, COS-7 membranes.
Assay [14] has the same target. This is another data set of the same source.
For assay [15] the target is unchanged. The source holds these as a separate data set.
Assay [16] shares this target. Nature of the assay: 125I-PYY3-36 displacement, LM(tk-) membranes.
Assay [17] has as its target human Y4 receptor (human) (UniProt P50391). Description: 125I-PYY displacement, COS-7 membranes.
Assay [18] deals with human Y1 receptor (human) (UniProt P25929). Description: 125I-PYY displacement, COS-7 membranes.
The target in assay [19] is T1, rat hypothalamic Y5 receptor (rat). Description: 125I-PYY displacement, COS-7 membranes. This is another data set of the same source.
Assay [20] has as its target human hippocampal Y5 receptor (human). Nature of the assay: 125I-PYY displacement, COS-7 membranes. This is another data set of the same source.
For assay [21] the target is unchanged. Nature of the assay: 125I-PYY displacement, LM(tk-) membranes.
The target is the same in assay [22]. Description: 125I-PYY displacement.
For assay [23], the target named is T1, rat hypothalamic Y5 receptor (rat). This is another data set of the same source.
Assay [24] deals with rat Y2 receptor (rat) (UniProt Q9ERC0). Description: 125I-PYY displacement, COS-7 membranes. This is another data set of the same source.
The target in assay [25] is rat Y1 receptor (rat) (UniProt P21555). Nature of the assay: 125I-PYY displacement, COS-7 membranes. This is another data set of the same source.
Assay [26] has as its target human Y2 receptor (human) (UniProt P49146). Nature of the assay: 125I-PYY displacement, COS-7 membranes. This is another data set of the same source.
The target of assay [27] is human Y1 receptor (human) (UniProt P25929). Nature of the assay: 125I-PYY displacement, COS-7 membranes. This is another data set of the same source.
Assay [28] deals with rat Y4 receptor (rat) (UniProt Q63447). Nature of the assay: 125I-PYY displacement, COS-7 membranes. This is another data set of the same source.
Assay [29] addresses rat Y2 receptor (rat) (UniProt Q9ERC0). Nature of the assay: 125I-PYY displacement, COS-7 membranes. This is another data set of the same source.
Assay [30] has as its target rat Y4 receptor (rat) (UniProt Q63447). Nature of the assay: 125I-PYY displacement, COS-7 membranes. This is another data set of the same source.
For assay [31], the target named is T1, rat hypothalamic Y5 receptor (rat). Description: 125I-PYY displacement, COS-7 membranes. The source holds these as a separate data set.

Values joined by “and” are separate entries in the source; they are usually repeats but may differ in a detail not shown here. Identical values can stand only once. Like-named read-outs stand apart in the source and are kept apart here. A value given as a limit tells only on which side of the number the result lay.

rat Y4 receptor (rat), sequence (Q63447 whole entry): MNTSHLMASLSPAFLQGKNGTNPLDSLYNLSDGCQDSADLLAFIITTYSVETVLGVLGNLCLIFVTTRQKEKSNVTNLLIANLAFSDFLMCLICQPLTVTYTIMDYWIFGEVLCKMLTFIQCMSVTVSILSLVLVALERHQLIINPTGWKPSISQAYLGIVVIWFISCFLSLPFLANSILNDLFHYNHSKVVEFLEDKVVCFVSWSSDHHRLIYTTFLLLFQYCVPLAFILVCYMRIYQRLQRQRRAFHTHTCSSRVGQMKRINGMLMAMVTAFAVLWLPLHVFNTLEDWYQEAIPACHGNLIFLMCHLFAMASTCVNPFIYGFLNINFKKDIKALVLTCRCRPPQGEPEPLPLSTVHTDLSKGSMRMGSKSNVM

As to “human PP (from UniProt P01298) (peptide)”, in [1], the % inhibition of cAMP accumulation relative to human NPY came to 96% and the inhibition of forskolin-stimulated cAMP accumulation, EC50 amounted to 14 nM.

On to “human PYY3-36 (from UniProt P10082) (peptide)”, for which the inhibition of forskolin-stimulated cAMP accumulation, EC50 stood at 4.9 nM in assay [2] and 18 nM in assay [1].

Consider “human NPY2-36, P01303 (peptide; other documents disagree on this pair)”, for which the Ki in the assay with rat Y4 receptor (rat) [3] worked out at 5 nM.

In the case of “porcine [Leu^31, Pro^34]NPY (from UniProt P01304) (peptide)”, the figures for the Ki with rat Y2 receptor (rat) [4], in the assay with rat Y1 receptor (rat) [5] and with rat Y4 receptor (rat) [3] were 840 nM, 0.25 nM and 0.32 nM, respectively.

For frog NPY (melanostatin) (peptide), the Ki in the assay with rat Y2 receptor (rat) [4] was 0.65 nM; with rat Y1 receptor (rat) [5], 0.09 nM; in assay [6], 0.71 nM.

For the substance “human NPY free acid, P01303 (peptide; free carboxylic acid at the carboxy terminus instead of the amide; other documents disagree on this pair)”, in the assay with rat Y4 receptor (rat) [3], the Ki is more than 1000 nM.

In [7], “human [Leu^31, Pro^34]NPY (from UniProt P01303) (peptide)” displayed a half-inhibitory concentration (IC50) of 0.21 nM. The inhibition of forskolin-stimulated cAMP accumulation, EC50 in [2] is 0.6 nM; in [1] it was 3 nM. The same substance displayed a maximum inhibition of forskolin-stimulated cAMP accumulation (Emax) in assay [2] of 70%. The inhibition constant (Ki) in the assay with rat Y2 receptor (rat) [4] is more than 1000 nM; in the assay with rat Y1 receptor (rat) [5], 0.1 nM; with rat Y4 receptor (rat) [3], 0.59 nM; in assay [6], 1 nM; in assay [8], more than 130 nM.

On to “porcine NPY3-36, P01304 (peptide; other documents disagree on this pair)”, for which the Ki with rat Y4 receptor (rat) [3] was found to be 36 nM.

For the substance “human NPY2-36 (from UniProt P01303) (peptide)”, the IC50 in assay [9] was 2.3 nM. In addition, in [2], the inhibition of forskolin-stimulated cAMP accumulation, EC50 is 2 nM and the maximum inhibition of forskolin-stimulated cAMP accumulation (Emax) turned out to be 84%.

Consider “porcine ^125I-[Leu^31, Pro^34]PYY (from UniProt P68005) (peptide)”, for which, in assay [10], the dissociation constant (Kd) came to 0.072 nM and the pKd is 10.1. For the same substance, in assay [11], the maximal specific binding was determined as 480 fmol/mg, the observed association rate (Kobs) came out at 0.042 min⁻¹ and the t1/2 of association came out at 17 min. In assay [12], this substance came in with a maximal specific binding of 330 fmol/mg, an observed association rate (Kobs) of 0.029 min⁻¹ and a t1/2 of association of 24 min.

In assay [13], “human [Ile^31, Gln^34]PP (from UniProt P01298) (peptide)” returned an inhibition constant (Ki) of 2 nM. The inhibition of forskolin-stimulated cAMP accumulation, EC50 in assay [1] is 5.6 nM.

Regarding “rat/human NPY, P01303 (peptide; carboxy terminal amide; other documents disagree on this pair)”, the inhibitory constant (Ki) in the assay with rat Y4 receptor (rat) [3] was found to be 1.7 nM.

In turn, “human PP2-36 (from UniProt P01298) (peptide)” yielded an inhibition of forskolin-stimulated cAMP accumulation, EC50 in [1] of 2 nM.

Substance “rat/human NPY (from UniProt P01303) (peptide)” registered an IC50 in assay [9] of 0.82 nM. In assay [14], this substance had an inhibition of forskolin-stimulated cAMP, EC50, LM(tk-) cells of 2.4 nM; an inhibition of forskolin-stimulated cAMP, EC50, NIH-3T3 cells of 8.5 nM; a maximum inhibition of forskolin-stimulated cAMP (Emax), LM(tk-) cells of 72%; a maximum inhibition of forskolin-stimulated cAMP (Emax), NIH-3T3 cells of 42%. For the same substance, in assay [2], the inhibition of forskolin-stimulated cAMP accumulation, EC50 is 1.8 nM and the maximum inhibition of forskolin-stimulated cAMP accumulation (Emax) was 67%. Further, the intracellular free calcium concentration (Fura-2) in assay [15] worked out at 34 nM. The same substance displayed an inhibition of forskolin-stimulated cAMP accumulation, EC50 in [1] of 2.7 nM.

For W(nor-L)RF-amide (peptide), the Ki in assay [6] turned out to be 8700 nM.

On to frog PP (rana temporaria) (peptide), for which the inhibitory constant (Ki) with rat Y2 receptor (rat) [4] was more than 980 nM; in the assay with rat Y1 receptor (rat) [5], 720 nM; with rat Y4 receptor (rat) [3], more than 1000 nM; in assay [6], more than 550 nM.

salmon PP (peptide): the inhibition of forskolin-stimulated cAMP accumulation, EC50 in assay [2] amounted to 0.92 nM; in assay [1] it was 4.5 nM. The Ki came to 0.16 nM with rat Y2 receptor (rat) [4]; 0.3 nM with rat Y1 receptor (rat) [5]; 3 nM in the assay with rat Y4 receptor (rat) [3]; 0.33 nM in [6]; 0.27 nM in assay [13]; 0.63 nM in assay [16]. In addition, the Ki in assay [8] amounted to 0.17 nM; in assay [17], 3.2 nM; in assay [18] it was 0.11 nM; in assay [19], 0.31 nM; in assay [20] it was 0.46 nM. Besides, the % inhibition of cAMP accumulation relative to human NPY in [1] turned out to be 96%.

Regarding “human [D-Trp^32]NPY (from UniProt P01303) (peptide)”, the Ki was 16 nM in assay [21]; 18 nM in assay [22]; 760 nM with rat Y2 receptor (rat) [4]; more than 1000 nM in the assay with rat Y1 receptor (rat) [5]; more than 630 nM in the assay with rat Y4 receptor (rat) [3]; 35 nM in assay [6]. The Ki was more than 500 nM in the assay with rat Y2 receptor (rat) [24]; more than 500 nM in the assay with rat Y1 receptor (rat) [25]; more than 500 nM in [26]; more than 500 nM in assay [27]; more than 500 nM with rat Y4 receptor (rat) [28]; 35 nM in [13]. Besides, the inhibition constant (Ki) in assay [16] was 10 nM; with rat Y2 receptor (rat) [29], more than 1000 nM; in assay [8], more than 1000 nM; in assay [18], more than 1000 nM; in the assay with rat Y4 receptor (rat) [30], more than 1000 nM; in assay [19], 53 nM. The inhibition of forskolin-stimulated cAMP accumulation, EC50 in [23] is 7.5 nM and 25 nm; in [2] it was 9.5 nM; in [1], 26 nM. Also, in assay [2], the maximum inhibition of forskolin-stimulated cAMP accumulation (Emax) was 72%.

For the substance avian PP (peptide), in the assay with rat Y2 receptor (rat) [4], the Ki is more than 1000 nM.

Take “human PYY (from UniProt P10082) (peptide)”: in [9], the concentration for half-maximal inhibition (IC50) came out at 1.3 nM. In assay [1], the % inhibition of cAMP accumulation relative to human NPY is 111% and the inhibition of forskolin-stimulated cAMP accumulation, EC50 was 4.9 nM.

With porcine C2-NPY (peptide), the inhibition constant Ki in assay [21] is 260 nM; in the assay with rat Y2 receptor (rat) [4] it was 2.6 nM; in the assay with rat Y1 receptor (rat) [5], 140 nM; with rat Y4 receptor (rat) [3], 22 nM; in assay [6] it was more than 260 nM; in assay [31], 260 nM. Further, the inhibition constant (Ki) is 370 nM in assay [13]; 220 nM in [16]; 3.5 nM in assay [8]; 120 nM in assay [17]; 79 nM in [18]; 470 nM in [19]. The substance also gave an inhibition of forskolin-stimulated cAMP accumulation, EC50 in assay [2] of 240 nM.
